Source: paper PMC10755736 (2023)
Non-standard residues stand in square brackets, D forms with d. No end group written: not given here. pY = N[C@@H](Cc1ccc(OP(=O)(O)O)cc1)C(=O)O

Molecular target: Nck adaptor protein (Nck1), recombinant (UniProt P16333 1-377)
Test: MST

## EEHI[pY]DEVAAD [peptide Y474 (pY-containing Tir peptide)]
  Kd: 76.4 nM
